According to patent US20130035289A1, “PHARMACEUTICAL COMPOSITION FOR TREATMENT OF THROMBOSIS-RELATED DISEASES COMPRISING A FRAGMENT OF PROLACTIN (PRL)-GROWTH HORMONE (GH)-PLACENTAL LACTOGEN (PL)-FAMILY PROTEIN” (UNIVERSITE DE LIEGE, priority 2010, published 2013):

Columns and labels:
uPA = target: T1, uPA (Homo sapiens, UniProt P00749+P05121); test: In situ proximity ligation assay (PLA) on HUVECs; type: cell-based
T1 construct: endogenous in cells; host or cells: HUVEC
Description: HUVECs were grown on gelatin-coated glass coverslips. After incubation for 2 h with 14K GH (50 nM) or 16K PRL (50 nM), the cells were washed with PBS at room temperature and fixed with 4% paraformaldehyde for 15 min, blocked, permeabilized and incubated overnight with mouse anti uPA (American Diagnostica Inc. Greenwich, Conn.) diluted 1/100 and rabbit anti prolactin (Dako) diluted 1/100, or rabbit anti human GH (home made) diluted 1/100. PLA was performed according to the manufacturer's instructions using the Duolink Detection Kit 563 (Olink Bioscience) with anti-mouse MINUS and anti-rabbit PLUS PLA probes. DAPI nucleus stain was added to the mounting media and the slides were analyzed by fluorescence microscopy.

NF-κB = NF-κB p65 DNA-binding activity in HUVECs; type: cell-based, human; conditions: 16K PRL 50 nM 1 h
Description: HUVECs were incubated for 2 h with 16K PRL and immunostained for uPA (red) or 16K PRL (green) and nuclei (DAPI, blue). Bottom panels: co-localization of PAI-1 and 16K PRL. To visualize added PAI-1 and not endogenous PAI-1, cells were incubated with His-tag PAI-1 and 16K PRL and stained for PAI-1 (red), 16K PRL (green), and nuclei (DAPI, blue). (B) Schematic outline of the proximity ligation assay (PLA) strategy showing primary antibody from different species for uPA and 16K PRL. Juxtaposition of secondary, oligonucleotide ligated antibodies allows a rolling circle amplification detected by a cy3-probe. (C) Detection of uPA/16K PRL complexes (red spots) on HUVECs by PLA. […]
HUVECs were pre-treated with a blocking uPAR Ab 3 μg/ml (R&D system) or control IgG (SantaCruz) for 1 h and then incubated for 1 h with 16K PRL (50 nM). The p65 DNA-binding activity of NF-κB was quantified by ELISA (EZ Transcription Factor kit NF-κB p65 (Pierce)) according to the manufacturer's instructions on total protein extracts. Protein concentrations were determined by the […] using the BCA protein assay reagent (Pierce). NF-κB binding to the target oligonucleotide was detected by incubation with primary antibody specific for the activated form of p65, visualized by anti-IgG horseradish peroxidase conjugate and developing solution. Chemiluminescence was quantified with a luminometer.

PAI-1 = target: T2, PAI-1 (Homo sapiens, UniProt P05121); test: Immunofluorescence staining on HUVEC, co-localization with His-tag PAI-1; type: cell-based; conditions: HUVECs, PAI-1 added to the medium with 16K PRL
T2 construct: gift of Pr; P. Declerck
T2 sequence (P05121 24-402): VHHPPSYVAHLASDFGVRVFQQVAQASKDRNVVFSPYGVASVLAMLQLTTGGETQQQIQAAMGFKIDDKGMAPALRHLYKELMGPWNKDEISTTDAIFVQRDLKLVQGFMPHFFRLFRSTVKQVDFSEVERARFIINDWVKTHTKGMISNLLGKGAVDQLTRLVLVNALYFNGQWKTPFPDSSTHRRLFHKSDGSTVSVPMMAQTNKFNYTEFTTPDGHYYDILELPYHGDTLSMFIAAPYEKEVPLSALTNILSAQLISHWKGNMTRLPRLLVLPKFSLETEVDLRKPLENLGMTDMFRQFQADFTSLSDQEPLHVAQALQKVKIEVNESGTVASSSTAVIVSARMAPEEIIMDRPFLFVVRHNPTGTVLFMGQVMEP
Description: HUVECs were grown to 70% confluence on gelatin-coated 35-mm dishes. After incubation for 3 h with 14K GH (160 ng/ml) or 16K PRL (160 ng/ml), the cells were washed with PBS at room temperature and incubated for 1 h at room temperature under non-permeabilization conditions with mouse anti uPA (American Diagnostica INC) diluted 1/100, rabbit anti prolactin (Dako) diluted 1/100, or rabbit anti human GH (home made) diluted 1/100. Endothelial cells were washed in PBS and incubated with FITC horse anti mouse (Vector Laboratory) and Texas red goat anti rabbit antibodies (Jackson Laboratory). For PAI-1 staining, the cells were incubated simultaneously with Histag PAI-1 at 800 uM and 16K PRL or 14K GH. […] Cryostat tumor sections (5 μm thick) were fixed in acetone at −20° C. and in 100% methanol at 4° C. and then incubated with the primary antibodies, rat monoclonal anti PECAM-1, and rabbit polyclonal anti-prolactin (DAKO) for 1 hour at room temperature. The slides were washed and incubated with a Cy3 goat anti-rat and an FITC goat anti-rabbit antibody. After 3 washes in PBS for 10 min, the slides were covered with coverslips in mounting medium (Victor Laboratories Inc.) and analyzed by fluorescence microscopy.

B1: 16K hPRL: 16K N-terminal human prolactin fragment, recombinant, produced and purified from E. coli (protein)
chain: LPICPGGAARCQVTLRDLFDRAVVLSHYIHNLSSEMFSEFDKRYTHGRGFITKAINSCHTSSLATPEDKEQAQQMNQKDFLSLIVSILRSWNEPLYHLVTEVRGMQEAPEAILSKAVEIEEQTKRLLEGMELIVSQVHP
uPA
  distance between uPA and 16K PRL: less than 40 nm
NF-κB; blocking uPAR antibody pre-treatment 1 h
  16K PRL-induced NF-κB signaling: disrupts
NF-κB; pre-treatment with ATF of uPA
  16K PRL response (NF-κB activity), requirement of uPA: required
PAI-1
  co-localization with PAI-1: co-localization of 16K PRL and PAI-1 was observed
